Source: patent publication US20220324993A1 (EXCELMAB, published 2022)

T1: CD20 on Raji cells (CD20+/CD3-) (human, UniProt P11836 1-297)
T1 sequence (looked up): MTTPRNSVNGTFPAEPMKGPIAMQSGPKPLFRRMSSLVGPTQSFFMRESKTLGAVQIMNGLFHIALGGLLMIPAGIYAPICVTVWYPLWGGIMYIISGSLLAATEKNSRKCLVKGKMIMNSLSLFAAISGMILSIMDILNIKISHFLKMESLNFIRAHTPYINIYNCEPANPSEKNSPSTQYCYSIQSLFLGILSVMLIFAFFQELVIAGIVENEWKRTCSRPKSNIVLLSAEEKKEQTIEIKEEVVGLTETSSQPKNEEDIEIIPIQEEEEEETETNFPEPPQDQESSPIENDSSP


Legend:
[1] = biological target: T2, CD3 antigen: 1:1 mixture of human CD3 e protein and human CD3 d protein (Sino Biological Inc.) (human, UniProt P07766 23-126; P04234 22-105); experiment: ELISA, CD3 e/d mixture coated, anti-human IgG-HRP detection
T2 construct: Bought recombinant proteins, mixed 1:1 and coated on the ELISA plate; also called antigen CD3
Experimental: 4) Addition of Samples: the bispecific antibody sample was diluted with PBS to 10 μg/ml and then subjected to a 4-fold gradient dilution at a total of eight concentrations. The diluted samples were added at 100 μL/well, and two replicate wells were used for each antibody concentration. The reaction wells were sealed with a plate sealing film and incubated at room temperature for 1.5 hours. The plate was washed 5 times with 0.05% PBST.
5) Addition of Secondary Antibody: HRP-labeled Goat Anti-Human IgG (H+L) (purchased from Proteintech company, product catalog No. SA00001-17) was diluted with PBS at a ratio of 1:2000 and added in a volume of 100 μL to each well. The reaction wells were sealed with a plate sealing film and incubated at room temperature for 1 hour. The plate was washed 5 times with 0.05% PBST.
7) Stopping: 50 μL of a stop solution (1 M HCl) was added to each well to stop the chromogenic reaction. After 3 min, the OD value of the reaction solution in each well was read at 450 nm on a microplate reader.

[2] = biological target: T1, CD20 on Raji cells (CD20+/CD3-); experiment: cell-based or functional assay

T2 sequence (P07766 23-126 limits assumed, chain 1 of 2): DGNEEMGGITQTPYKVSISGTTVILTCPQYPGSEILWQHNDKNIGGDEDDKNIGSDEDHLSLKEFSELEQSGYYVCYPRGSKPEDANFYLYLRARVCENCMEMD
T2 sequence (P04234 22-105 limits assumed, chain 2 of 2): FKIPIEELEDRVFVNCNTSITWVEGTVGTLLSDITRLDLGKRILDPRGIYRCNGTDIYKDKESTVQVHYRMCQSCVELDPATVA

| Binder | EC50 [1] [ng/mL] | ADCC activity to kill target tumor cells (Raji and Daudi cells), EC50 [2] [ng/mL] | killing of Raji cells by hPBMCs (LDH release), EC50 [2] [ng/mL] |
| --- | --- | --- | --- |
| CD20×CD3 BsAb V1 (bispecific antibody, human IgG1, kappa, L234A L235A, Four-chain IgG-like bispecific antibody with a heterodimeric Fc; The anti-CD20 arm is derived from Ofatumumab; the anti-CD3 arm is a humanized murine antibody without the N106T mutation; Expressed in HEK293 cells behind an IL-2 signal peptide supplied by the plasmid; also called CD20×CD3 bispecific antibody V1) heavy 1: EVQLVESGGGLVQPGRSLRLSCAASGFTFNDYAMHWVRQAPGKGLEWVSTISWNSGSIGYADSVKGRFTISRDNAKKSLYLQMNSLRAEDTALYYCAKDIQYGNYYYGMDVWGQGTTVTVSSASTKGPSVFPCAPSSKSTSGGTAALGCLVKDYFPEPVTVSWNSGALTSGVHTFPAVLQSSGLYSLSSVVTVPSSSLGTQTYICNVNHKPSNTKVDKKVEPKSSDKTHTCPPCPAPEAAGGPSVFLFPPKPKDTLMISRTPEVTCVVVDVSHEDPEVKFNWYVDGVEVHNAKTKPREEQYNSTYRVVSVLTVLHQDWLNGKEYKCKVSNKALPAPIEKTISKAKGQPREPQVYTLPPSREEMTKNQVSLTCLVKGFYPSDIAVEWESNGQPENNYKTDDDVLDSDGSFFLYSKLTVDKSRWQQGNVFSCSVMHEALHNHYTQKSLSLSPGK light 1: not shown heavy 2: EVQLVESGGGLVQPGGSLKLSCAASGFTFNTYAMNWVRQAPGKGLEWVARIRSKYNNYATYYADSVKDRFTISRDDSKNTAYLQMNNLKTEDTAMYYCVRHGNFGNSYVSWFAYWGQGTLVTVSSASTKGPSVFPLAPSSKSTSGGTAALGCLVKDYFPEPVTVSWNSGALTSGVHTFPAVLQSSGLYSLSSVVTVPSSSLGTQTYICNVNHKPSNTKVDKKVEPKSCDKTHTCPPCPAPEAAGGPSVFLFPPKPKDTLMISRTPEVTCVVVDVSHEDPEVKFNWYVDGVEVHNAKTKPREEQYNSTYRVVSVLTVLHQDWLNGKEYKCKVSNKALPAPIEKTISKAKGQPREPQVYTLPPSRDELTKNQVSLTCLVKGFYPSDIAVEWESNGQPENNYKTTKKKLDSDGSFFLYSKLTVDKSRWQQGNVFSCSVMHEALHNHYTQKSLSLSPGK light 2: DIQMTQEPSLTTSPGGTVTLTCRSSTGAVTTSNYANWVQEKPGQAPRGLIGGTNKRAPGTPARFSGSLIGGKAALTITGVQPEDEAIYFCALWYSNLWVFGGGTKLEIKRTVAAPSVFIFPPSDEQLKSGTASVVCLLNNFYPREAKVQWKVDNALQSGNSQESVTEQDSKDSTYSLSSTLTLSKADYEKHKVYACEVTHQGLSSPVTKSFNRGEC | 818 | 0.2 | 0.21 |
| CD20×CD3 BsAb V2 (bispecific antibody, human IgG1, kappa, L234A L235A, also called CD20×CD3 bispecific antibody V2) heavy 1: EVQLVESGGGLVQPGRSLRLSCAASGFTFNDYAMHWVRQAPGKGLEWVSTISWNSGSIGYADSVKGRFTISRDNAKKSLYLQMNSLRAEDTALYYCAKDIQYGNYYYGMDVWGQGTTVTVSSASTKGPSVFPCAPSSKSTSGGTAALGCLVKDYFPEPVTVSWNSGALTSGVHTFPAVLQSSGLYSLSSVVTVPSSSLGTQTYICNVNHKPSNTKVDKKVEPKSSDKTHTCPPCPAPEAAGGPSVFLFPPKPKDTLMISRTPEVTCVVVDVSHEDPEVKFNWYVDGVEVHNAKTKPREEQYNSTYRVVSVLTVLHQDWLNGKEYKCKVSNKALPAPIEKTISKAKGQPREPQVYTLPPSREEMTKNQVSLTCLVKGFYPSDIAVEWESNGQPENNYKTDDDVLDSDGSFFLYSKLTVDKSRWQQGNVFSCSVMHEALHNHYTQKSLSLSPGK light 1: not shown heavy 2: EVQLVESGGGLVQPGGSLKLSCAASGFTFNTYAMNWVRQAPGKGLEWVARIRSKYNNYATYYADSVKDRFTISRDDSKNTAYLQMNNLKTEDTAMYYCVRHGNFGTSYVSWFAYWGQGTLVTVSSASTKGPSVFPLAPSSKSTSGGTAALGCLVKDYFPEPVTVSWNSGALTSGVHTFPAVLQSSGLYSLSSVVTVPSSSLGTQTYICNVNHKPSNTKVDKKVEPKSCDKTHTCPPCPAPEAAGGPSVFLFPPKPKDTLMISRTPEVTCVVVDVSHEDPEVKFNWYVDGVEVHNAKTKPREEQYNSTYRVVSVLTVLHQDWLNGKEYKCKVSNKALPAPIEKTISKAKGQPREPQVYTLPPSRDELTKNQVSLTCLVKGFYPSDIAVEWESNGQPENNYKTTKKKLDSDGSFFLYSKLTVDKSRWQQGNVFSCSVMHEALHNHYTQKSLSLSPGK light 2: DIQMTQEPSLTTSPGGTVTLTCRSSTGAVTTSNYANWVQEKPGQAPRGLIGGTNKRAPGTPARFSGSLIGGKAALTITGVQPEDEAIYFCALWYSNLWVFGGGTKLEIKRTVAAPSVFIFPPSDEQLKSGTASVVCLLNNFYPREAKVQWKVDNALQSGNSQESVTEQDSKDSTYSLSSTLTLSKADYEKHKVYACEVTHQGLSSPVTKSFNRGEC | 2100 | 0.2 | 0.24 |
